We go through eight substances from patent US8202973B2, “Method for the production of vitamin K-dependent proteins” (Novo Nordisk Health Care AG, priority 2000, dated 2012).

The target in the first assay is T1, gamma-glutamyl carboxylase (Homo sapiens, UniProt P38435).
T1 sequence (P38435 1-758): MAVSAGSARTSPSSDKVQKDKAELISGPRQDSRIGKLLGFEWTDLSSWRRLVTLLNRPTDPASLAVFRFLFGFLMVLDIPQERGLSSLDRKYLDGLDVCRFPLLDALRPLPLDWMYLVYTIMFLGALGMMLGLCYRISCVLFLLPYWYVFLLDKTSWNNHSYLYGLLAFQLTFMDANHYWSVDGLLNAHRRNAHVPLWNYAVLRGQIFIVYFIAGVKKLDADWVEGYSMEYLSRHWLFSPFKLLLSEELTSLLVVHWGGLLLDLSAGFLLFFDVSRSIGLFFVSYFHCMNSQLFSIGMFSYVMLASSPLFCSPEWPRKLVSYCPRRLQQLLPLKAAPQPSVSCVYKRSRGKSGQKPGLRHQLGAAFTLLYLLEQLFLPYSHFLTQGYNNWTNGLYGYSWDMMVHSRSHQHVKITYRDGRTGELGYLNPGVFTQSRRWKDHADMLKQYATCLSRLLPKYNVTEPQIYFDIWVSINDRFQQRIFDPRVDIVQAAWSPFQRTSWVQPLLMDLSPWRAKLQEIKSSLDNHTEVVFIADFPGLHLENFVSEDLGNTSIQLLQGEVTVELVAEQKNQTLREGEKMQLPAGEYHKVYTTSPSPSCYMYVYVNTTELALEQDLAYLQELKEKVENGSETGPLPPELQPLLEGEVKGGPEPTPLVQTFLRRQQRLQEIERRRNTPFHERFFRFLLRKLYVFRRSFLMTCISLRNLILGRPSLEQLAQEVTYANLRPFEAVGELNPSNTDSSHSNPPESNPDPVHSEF
Assay: not given
Conditions: free propeptide of vitamin K-dependent protein, positions -18 to -1; cited from earlier work.
What is called Ki is the dissociation constant of the complex between target and ligand, obtained from inhibition or displacement. Consider “consensus propeptide sequence AVFLSREQANQVLQRRRR (SEQ ID NO:1) (listed as Homo sapiens)”, for which the Ki was 0.43 nM.

For the substance “propeptide of FVII, AVFVTQEEAHGVLHRRRR (SEQ ID NO:7); expressed free from plasmid pLN329 (listed as Homo sapiens)”, the Ki was 11.1 nM.

For the substance “propeptide of Matrix Gla Protein, NPFINRRNANTFISPQQR (SEQ ID NO:3)”, the Ki is 5.8 nM.

Turning to “propeptide of Protein C, SVFSSSERAHQVLRIRKR (SEQ ID NO:9) (listed as Homo sapiens)”, the Ki was 230 nM.

For the substance “propeptide of Protein S, ANFLSKQQASQVLVRKRR (SEQ ID NO:4) (listed as Homo sapiens)”, the Ki is 12.2 nM.

As to “propeptide of Prothrombin, HVFLAPQQARSLLQRVRR (SEQ ID NO:6) (listed as Homo sapiens)”, the Ki is 277 nM.

As for “propeptide of factor X, SLFIRREQANNILARVTR (SEQ ID NO:2) (listed as Homo sapiens)”, the Ki was 2.6 nM.

For the substance “propeptide of proline-rich Gla protein 1, RVFLTGEKANSILKRYPR (SEQ ID NO:5) (listed as Homo sapiens) [PRGP1]”, the Ki was 12.8 nM.

For the next assay, the system named is CHO-K1 cells. As to the kind of experiment: FVII expression of CHO-K1 cells coexpressing FVII and a free FVII propeptide. The format is cell-based. The settings on record: pools of CHO-K1 transfectants, pLN174 plus FVII propeptide in pcDNA3.1+; control with empty vector approximately 1 pg/cell/day. As to the method:
CHO K1 cells (ATCC CCI61) were transfected with equal amounts of pLN174 and pLN329 with the Fugene6 method (Boehriner-Mannheim). Transfectants were selected by the addition of methotrexate to 1 μM and G-418 to 0.45 mg/ml. The pool of transfectants were cloned by limiting dilution and FVII expression from the clones was measured.
CHO-K1 cells were transfected with pLN174 and 1) empty pcDNA3.1+ vector or 2) FVII propeptide in pcDNA3.1+, as described in Example 1. Pools of transfectants were analysed for FVII expression and cell numbers. The FVII yields pr. cell pr. 24 hours are outlined in FIG. 3.
As to “propeptide of FVII, AVFVTQEEAHGVLHRRRR (SEQ ID NO:7); expressed free from plasmid pLN329 (listed as Homo sapiens)”, the “FVII yields pr. cell pr. 24 hours” value was approximately 4 pg/cell/day.
